Measured values from article PMC5059438.

Target: Ops*, an active form of opsin which is similar to metarhodopsin II (UniProt P02699)

**Q.** With “Ops*, an active form of opsin which is similar to metarhodopsin II (from UniProt P02699 1-348) (receptor)” as the substance, how does the molar mass of functionally reconstituted scramblase, from the fit of p(≥1 scramblase) versus PPR* (dithionite/NBD-PC scramblase assay on proteoliposomes) read?
**A.** 90800 g/mol
